Measurements taken from patent publication US6372211B1, “Methods and compositions for controlling insects” (Monsanto Technolgy LLC, priority 1997, dated 2002).

What was measured:
[1] = system: Trichoderma sp. F22844 L-lysine oxidase (Mr 56,000 protein, E.C. 1.4.3.14), native; proprotein SEQ ID NO:46; details: read-out: Km for lysine; lysine oxidase from F22844
T. viride lysine oxidase = details: read-out: Km for lysine, reported, Kusakabe et al., 1980; cited from earlier work
southern corn rootworm = assay: Southern corn rootworm artificial diet bioassay; assay type: in vivo
Protocol: These proteins were then purified by sizing and ion exchange chromatography. […] In both cases, no bioactivity was detected when the proteins were assayed individually but significant stunting was seen when the proteins were combined in assay.
Native-PAGE studies were effective in confirming that the Mr 56,000 and Mr 50,000 proteins were responsible for the southern corn rootworm bioactivity of F22844. The chromatographically purified Mr 56,000 and Mr 50,000 proteins were further purified by native PAGE. […] A sample containing a combination of the two proteins at concentrations of 9.7 μg/mL of Mr 56,000 and 2.5 μg/mL of Mr 50,000 yielded 89% stunting of corn rootworm larvae (Table 3). […]
(§1) These leads were not characterized further. […] Lysine oxidase from Trichoderma viride is available commercially from Sigma (St. Louis, Mo.). The enzyme was purified to a single band from this preparation and bioassayed against southern corn rootworm. Bioassays were conducted to compare the concentration responses of the T. viride lysine oxidase (±Mr 50,000 protein from F22844) with the lysine oxidase purified from F22844. The bioactivity of the T viride lysine oxidase agrees very well with the bioactivity of lysine oxidase from F22844 when bioassayed in the presence of tedanalactam synthase from F22844 (Table 10). Very similar stunting levels are seen at equivalent doses (compare Table 10 to Table 7). In addition, no bioactivity is seen with either lysine oxidase in the absence of tedanalactam synthase from F22844.
An NcoI-HindIII fragment containing the full length tedanalactam synthase cDNA gene (SEQ ID NO:40) from pMON25424 was interested into pMON6235, an E. coli expression vector containing an arabinose inducible promoter and G10 leader sequence to produce pMON25428 (FIG. 12). […] The relative migration of the expressed protein on SDS-PAGE was identical to the F22844 purified tedanalactam synthase. The recombinant tedanalactam synthase was purified in a 5 step procedure from E. coli expressing the tedanalactam synthase gene. Lysine oxidase was purified from a commercial preparation of T. viride lysine oxidase. Both the lysine oxidase and tedanalactam synthase were >95% pure by SDS-PAGE.

[2] = Lysine oxidase enzymatic assay of enzyme preparations; assay type: biochemical; details: purified lysine oxidase
Protocol: F22844 was identified taxonomically as a Trichoderma species.
(§2) Yeast (Saccharomyces cerevisiae) transformed with pMON25030 were grown in the presence of galactose and shown to produce enzymatically active lysine oxidase. Yeast transformed with pMON25030 had soluble lysine oxidase activity in both disrupted cell pellets and cell free culture media. […] Lysine oxidase from the yeast culture media was subsequently purified and shown to have bioactivity against corn rootworm when combined with tedanalactam synthase.

corn rootworm = assay: Corn rootworm bioassay (species not stated); assay type: in vivo, Diabrotica spp.; details: Table 11, yeast recombinant lysine oxidase 14 ppm, F22844 Mr 50,000 10 ppm, alone or combined
Protocol: as §1, §2

NCCCC[C@H](N)C(=O)O [lysine]
Km [1]: 26 µM
Km (T. viride lysine oxidase): 40 µM

B1: L-lysine oxidase (protein)
chain: MDNVDFAESVRTRWARRLIREKVAKELNILTERLGEVPGIPPPNEGRFLGGGYSHDNLPSDPLYSSIKPALLKEAPRAEEELPPRKVCIVGAGVSGLYIAMILDDLKIPNLTYDIFESSSRTGGRLYTHHFTDAKHDYYDIGAMRYPDIPSMKRTFNLFKRTGMPLIKYYLDGENTPQLYNNHFFAKGVSDPYMVSVANGGTVPDDVVDSVGEKLQQAFGYYKEKLAEDFDKGFDELMLVDDMTTREYLKRGGPKGEAPKYDFFAIQWMETQNTGTNLFDQAFSESVIDSFDFDNPTKPEWYCIEGGTSLLVDAMKETLVHKVQNNKRVDAISIDLDAPDDGNMSVRIGGKDHSGYSTVFNTTALGCLDRMDLRGLNLHPTQADAIRCLHYDNSTKVALKFSYPWWIKDCGITCGGAASTDLPLRTCVYPSYNLDDTGEAVLLASYTWSQDATRIGSLVKDAPPQPPKEDELVELILQNLARLHAEHMTYEKIKEAYTGVYHAYCWANDPNVGGAFALFGPGQFSNLYPYLMRPAAGGKFHIVGEASSVHHAWIIGSLESAYTAVYQFLYKYKMWDYLRLLLERWQYGLQELETGKHGTAHLQFILGSLPKEYQVKI
notes: Mr 56,000 protein purified from Trichoderma sp; F22844 culture filtrate, identified as L-lysine oxidase
% Stunting (southern corn rootworm; Table 2a, Mr 56,000 10 μg/mL, Mr 50,000 1.5 μg/mL, alone or combined, NSS = not statistically significant): NSS
% Stunting (southern corn rootworm; Table 3, native PAGE purified, Mr 56,000 9.7 μg/mL, Mr 50,000 2.5 μg/mL, alone or combined): NSS
Mean larval wt. (mg) (+SEM) (southern corn rootworm; Table 12, SCRW neonate, T. viride lysine oxidase 10 ppm, E. coli produced Mr 50,000 18 ppm, alone or combined, buffer 0.68, 0.57): 0.48 ± 0.04 mg
# of survivors (southern corn rootworm; Table 12, SCRW neonate, T. viride lysine oxidase 10 ppm, E. coli produced Mr 50,000 18 ppm, alone or combined, buffer 51, 52): 46
% Stunting (southern corn rootworm; second table headed TABLE 2a, Mr 56,000 10 μg/mL, Mr 50,000 1.5 μg/mL, NSS = not statistically significant): NSS
specific activity [2]: 37 U/mg protein
# of survivors (corn rootworm; 16 wells/sample, buffer 61, 45): 38
Mean larval wt. (mg) (±SEM) (corn rootworm; buffer 0.94, 0.84): 0.76 ± 0.06 mg
